Consider one substance from patent publication US20130172283A1, “LYOPHILIZED FORMULATION OF PECTIN-ADRIAMYCIN CONJUGATE AND PREPARATION METHOD THEREOF” (CHONGQING LUMMY PHARMACEUTICAL CO., LTD., priority 2010, published 2013).

One data set in a line: solubility tests of PAC. The data set is classed as physicochemical. The settings on record: repeated solubility tests. An excerpt:
Insoluble drugs have two major problems in clinical application, one problem is low bioavailability due to low solubility of the drugs, and the other problem is that conventional formulation methods have certain restriction on application of the insoluble drugs.

A short description of data set [1]: monitoring of drug loading rate in long-term storage (UV absorbance at 480 nm). The data set is classed as physicochemical. The following applies: initial, bulk drug. As to the method:
10.7 mg adriamycin hydrochloride was precisely weighed and placed in a 100 mL volumetric flask, diluted with sterile water for injection to volume as stock solution, and underwent ultrasonic treatment for 5 min for even mixing; 0.2 ml, 0.4 ml, 0.8 ml, 1.2 ml, 1.6 ml and 2 ml adriamycin hydrochloride stock solution were pipetted and placed in 5 ml volumetric flasks respectively, diluted with sterile water for injection to volume, and shook up. Using ultraviolet spectrophotometry, absorbance A values of adriamycin solution were determined at the series of concentration gradients at 480 nm, and linear regression was performed by taking absorbance A as a vertical coordinate and mass concentration C (mg·mL-1) of adriamycin as horizontal coordinate to obtain an equation: A=0.0178C+0.0284, R2=0.9994 (n=3).
1 mL PAC nanosuspension (prepared according to a preferable solution) was precisely pipetted and placed in a 50 mL volumetric flask (concentration of the PAC nanosuspension was 7.76 mg/mL), diluted with sterile water for injection to volume and shook up, and then proper amount was pipetted to determine absorbance at 480 nm so as to obtain adriamycin concentration Cx with the standard curve. Drug loading rate of the PAC=(Cx/7.76)*100%. […]

Take pectin-adriamycin conjugate [PAC]: the solubility entry in the data set “solubility tests of PAC” is on record as “insoluble”. For the same substance, the drug loading rate in data set [1] is 25.8%.
